Assay: yeast display, Sf9 membrane polyspecificity reagent, FACS + sequencing; frameworks hold sequencing errors
Procedure, shortened: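 Nanobodies came from a synthetic yeast display library in Saccharomyces cerevisiae BJ5465, induced with galactose for 36–48 hours and stained for 1 hour at 4 °C with 10% biotinylated, detergent-solubilized Sf9 membrane reagent. Cells were enriched on streptavidin microbeads and then FACS-sorted, with low and high (top ~1%) gates set on anti-HA fluorescence for expression and streptavidin fluorescence for reagent binding. Each polyreactivity label reflects the gate a clone came from. Genes were amplified by colony PCR, sequenced by MiSeq 2 × 250 and filtered by CDR length.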

Row | Sequence | polyreactivity (PSR sort gate)
1 | QVQLVESGGGLVQAGGSLRLSCAASGFTFRYYAMGWYRQAPGKERELVASISARGGITNYADSVKGRFTISRDNAKISVYLQMNSLKPEDTAVYYCAADVFSWYGEYDYWGQGTQVTVSS | high polyreactivity
2 | QVQIVESGGGLVQAGGSLRLSCAASGFIFGQYAMGWYRQAPGKERELVAAISSVGTTNYADSVKGRFTISRDNAKNTVYLQMNSLKPEDTAVYYCNAPVFYYWDYSYFPYEVDYWGQGTQVTESS | low polyreactivity
3 | QVQLVESGGGLVQAGGSLRLSCAASGRIFGHYAMGWYRQAPGKERELVAAISQSGTNTYYADSVKGRFTISRDNAKNTVYLQMNSLKPEDTAVYYCAAKPPRRYQLMDYWGQGTKVTVSS | high polyreactivity
4 | QVQLVESGGGLVQAGGILRLSCAASGITFPANAMGWYRQAPGKQRELVAAISSYGGSTYYADSVKGRFTISRDNAKNNVYFQMNSLKPEDTAVYYCAAYLSSLGRKYYYWGQGTQVTVSS | high polyreactivity
5 | QVQLVESGGGLVQAGGSLRLSCAASGRIFAYYAMGWYREAAGKERELVAAITTNGGGTYYADSVKGRFTISRDNAKNTVYLQMNSLKPEHTAVYYSNADKQRSSIFDYWGQGTQVTVSS | low polyreactivity
6 | QVQLVESGGGLVQAGGSLRLSCAASGSTFGKYAMGWYRQAPGKERELVAAITNGGRTNFADSVKGRFTISRDNAKNTVYLQMNSLKPEDTAVYFCNKARYGTDDYEYWGQGTQVTVSS | low polyreactivity
7 | QVQLVESGGGLDQAGGSLRLSCAASGRIFNKYAMGWYRQAPGKERELVAAITRSGTRTFYADSVKGRFTISRDNAKNTVYLQMNSLKPEDTAVYYCNRDQYPFTKMDYWGQGTQVTVSS | high polyreactivity
8 | QVQLVESRVGLVKAGGSLRLSCAASGITLYWYAMGWYRQAPGKESELVAAISRRGGTTYYSDSVKGRFTISRDNAKNTVYLQMNILKPEDTAVYYCAKAPDTQTSWSRQEGNYWGQGSQVTVSS | low polyreactivity
9 | QVQLVESGGGLVQAGGSLRLSCAASGRTVWDSAMGWYRQAPGNERELVAAIASNTGSTYYADSVKGRFTISRDNAKNTVYLQLNSLKPEDTAVYYCNVEYYYDFNFNYDDYEFDYWGQGTHVTVSS | high polyreactivity
10 | QVQLVESGGGLVQAGGILRLSCDASGRIFRANAMGWYRQAPGKERELVASITYSGGSTYYADSVKGRFTISRDNAKNTVYLPMNSLNPEDTAVYYCARAGISSGGYYYWGQGTQVTVSS | low polyreactivity
11 | QVQLVESGGGLVQAGGSLRLSCAASGRTLQIYVMGWYRQAPGKERELVASITGRGGSTYYADSVKGRFTISRDNAKNTVYLQMNSLKPEDTAVYYCARRYYRLDYWGQGTQVTVSS | high polyreactivity
12 | QVQLVESGGGLVQAGGSLRLSCAASGIIFIKYSMGWYRQAPGKERELVAAITSGGSTHYADSVKGRFTISRDNAKNTVYLQMNSLKPEDTAVYYCYADILRHVAYFKDRYQAGSYWGQGTQVTVSS | low polyreactivity
13 | QVQLVESGGGLVQAGGSLRLSCAASGRTLYYYAMGWYRQAPGKERELVARISSRGGSTYYADSVKGRFTISRDNAKNTVYLQMNSLKPEDTAVYYCAADGPGTSEDDYWGQGTQVTVSS | high polyreactivity
14 | QVQLVESGGVLVQAGGSLRLSCAASGRIFPGYVMGWYRQAHGKERELVAAITRGGSTYYADSVKGRFTISRDNAKNTVYLQMNSLKPEDTAVYYCAAKHSHIHYNYWGQGTQVTVSS | low polyreactivity
15 | QVQLVESGGGLVQAGGSNRLSCAASGFTFYRNVMGWYRQAPGKERELVAARTWNGGTTYYADSEKGRFTISRDTAKSSVYLQMDSLQREDTAVYFCAAASRHTGSYRFYYWGQGTQVTVSS | high polyreactivity
16 | QVQLVESGGGVVQAGGSLRLSCAASGRIFVRNAMGWYRQAPGKERELVAAISRSGGSTSYADSVKGRFTISRDNAKTTVYLQMNSLKPEDTAVYDCAARYARYQYQYDYWGQGTQVTVSS | high polyreactivity

Row | Sequence | polyreactivity (PSR sort gate)
17 | QVQLVESGGGLVQAGGSLRLSCAASGRILYYYAMGWYRQAPGKERELVAAISGSAGTTYYADSVKGRFTISRDNAKNPVYLQMNSLKPEDTAVYYCSKYYPYIQADYGYDYWGQGTQVSVSS | low polyreactivity
18 | QVQLVESGGGLVQAGGSLRLSCAASGSIFLGYTMGWSRQAPGKERELVAAINSSGGSTYYADSVKGRFTISRDNAKNTVYLQMNSLKPEDTAVYYCAVANSILLFDSWGQGTQVTVSS | low polyreactivity
19 | QVQLVESGGGLVQAGGSIRLICAASGFTFSRYAMGWYRQAPGKERELVAVISSSGSRTYYADSVKGRFTISRDNAKNTVYLQMNSLKPEDTAVYYCAAKSRPRYYGTEPFDSWGQGTQVTVSS | high polyreactivity
20 | QVQLVESGGGLVQAGGSLRLSCAASGFIFQQNAMGWYIQAPGKERELVAAISRSGGRTYYADSVKGRFTISRDNAKNTVYLQMNSLKPEDSAVYYCATRFYTKAFEYDYWGQGTQVTVSS | high polyreactivity
21 | QVQLVESGGGLVQAGGSLRLSCAASGFIFRYYAMGWYRQAPGKERELVAAINASGGRTYYADSVKGRFTISRDNARNTVYFQMNSLKPEDSAVYYCAAYRSYQTFDYWGQGTQVTVSS | high polyreactivity
22 | QVQLVESGGGLVQAGGSLRLSCAASGRIFVGYAMGWYRQAPGKERELVAGIRYSGGSTYYADSVKGRFTISRDNAKNTVYLQMNSLKPEDTAVYYCANQVWHYAGRPNYKYDYWGQGTQVTVSS | low polyreactivity
23 | QVQLVESGGGLVQAGVSLRLSCAASGRTFFLYAMGWYRQAPGKERELVARISTSGGGTYYADSVKGRFTISRDNAKYTVYLQMNSLKPEDTAVYYCAARTFRGQRRAGGYDYWGQGTQVTVSS | high polyreactivity
24 | QVQLVESGGGLVQAGGSLRLSCAASGSTFTSYAMGWYRQAPRKERELVAAINYSGGSTYYADSVKGRFTISRDNAKNTVYLQMNSLKPEDTAVYYCAADGYIRQYVTYYYWGQGTQVTVSS | low polyreactivity
25 | QVQLVESGGGLVQAGGSLRLSCAASGSIFGRYAMGWYRPAPGKDRELVAAISDDSSTNYADSVKGRFTISRDNAKHNDYLQMHSLKPEVTAVYYCNADSWRYVAEGLWREYDYWGQGTQVTVSS | low polyreactivity
26 | QVQLVESGGGLVQAGGSLRLSSAASGSIYYPYAMGWYRQAPGKERELVAAIRNGGSTYYADSVKGRFTISRDNAKNTVYLQMNSLKPEETAVYYCNAVYTGPTYGPHRKENYYWGQGTQVTVSS | high polyreactivity
27 | QVQLVESAGGLVQEGGSLSLSCAASGITLTIYVMGWYRQAPGKEREMVAAISTSGGSTYYADSVKGRFTISRDNAKNTVYLQMNSLKQEDTAVYYCNATPLRRYYGRYLMDYWGQGTQVTVSS | high polyreactivity
28 | QVQLVESGGGLVQAGGSLRLSCAASGSTFLKNAMGWYRQAPGKERELVAAISYSTTRTYYADSVKGRFTISRDNAKNTVYLQMNSLKPEDTAVYYCNKASYWGSGFDYWGQGTQVTVSS | low polyreactivity
29 | QVQLVESGGGLVQAGGSLRLSCAASGFIFGDYAMGWYRQAPGKERELVAAITWSGGRTYYADSVKGRFTISRDNAKNTVYLQMNSLKPEDTAVYYCSAVWYTSRQKYDYWGQGTQVTVSS | low polyreactivity
30 | QVQLVESGGGLVQAGGSLRLICAASGRIYIKNAMGWYRQAPGKERELVAAISSGSSTYYADSVKGRFTISRDNAKNSVYLQMYSLKPEDTAVYYCAAPDYRNGVRYPLDYWGQGTQVTVSS | low polyreactivity
31 | QVQLVESVGGFVQAGGSLRLSCAASGRIFGTYAMGWYRQAPGKERELVAAITRGGTTYYADSVKRRFTISRDNAKNTVYLQMNSLKPEDTAVYDCATGPAIRYDYWGQGTQVTVSS | low polyreactivity
32 | QVQLVESGGGLFQAGGSLRISCAASGFIFSFYAMGWYRQAPGKERELVAAITSSGATTYYADSVKGSFTISRDNAKNTVYLQMNSLKPEDTAVYYCNAVYRRDTGYYRYYYWGQGTQVTVSS | high polyreactivity

Source: the nanobody polyreactivity screen of Harvey et al. (2022)
